Measured values taken from PMC5705802, “A hypermorphic antioxidant response element is associated with increased MS4A6A expression and Alzheimer's disease”.
Substitutions are numbered along the chain they refer to.

Legend:
[1] = target: T1, NRF1;MAFG (Homo sapiens;Homo sapiens?, UniProt Q14494;O15525 1-772;1-162, |); assay: EMSA; TNT NRF1 2 ul/20 ul, 37.5 nM MAFG; unlabeled N1 also competes; 20 mM HEPES (pH not stated), 4 mM MgCl2, 20 mM KCl, 5 mM DTT, 1 mM EDTA, 100 ug/ml BSA, 4% glycerol, poly(dI-dC), 30 min room temperature; native gel 1X TBE; conditions: protein: ivt;commercial; tags: His (plasmid pPB-N-His-NRF1, abm PV028854);; copies: 1;1; label: IRDye-700 as probe; blunt
[2] = target: T2, FOS;JUN (Homo sapiens?;Homo sapiens?, UniProt P01100;P05412 1-380;1-331, |); assay: EMSA; 75 nM each; unlabeled N1 also competes; 20 mM HEPES (pH not stated), 4 mM MgCl2, 20 mM KCl, 5 mM DTT, 1 mM EDTA, 100 ug/ml BSA, 4% glycerol, poly(dI-dC), 30 min room temperature; native gel 1X TBE; conditions: protein: commercial;commercial; tags: ;; copies: 1;1; label: IRDye-700 as probe; blunt
[3] = target: T3, NRF2;MAFG (Homo sapiens;Homo sapiens?, UniProt Q16236;O15525 1-605;1-162, |); assay: EMSA; 75 nM NRF2, 37.5 nM MAFG; unlabeled N1 also competes; 20 mM HEPES (pH not stated), 4 mM MgCl2, 20 mM KCl, 5 mM DTT, 1 mM EDTA, 100 ug/ml BSA, 4% glycerol, poly(dI-dC), 30 min room temperature; native gel 1X TBE; conditions: protein: recombinant;commercial; tags: His, Flag3 (plasmid pPROHEX-HC-Flag3-NRF2);; copies: 1;1; label: IRDye-700 as probe; blunt
[4] = target: T2, FOS;JUN; assay: competition EMSA; unlabeled vs labeled N1; 20 mM HEPES (pH not stated), 4 mM MgCl2, 20 mM KCl, 5 mM DTT, 1 mM EDTA, 100 ug/ml BSA, 4% glycerol, poly(dI-dC), 30 min room temperature; native gel 1X TBE; conditions: protein: commercial;commercial; tags: ;; copies: 1;1; blunt
[5] = target: T1, NRF1;MAFG; assay: as above; conditions: protein: ivt;commercial; tags: His (plasmid pPB-N-His-NRF1, abm PV028854);; copies: 1;1; blunt
[6] = target: T3, NRF2;MAFG; assay: competition EMSA; excess unlabeled vs labeled N1; 20 mM HEPES (pH not stated), 4 mM MgCl2, 20 mM KCl, 5 mM DTT, 1 mM EDTA, 100 ug/ml BSA, 4% glycerol, poly(dI-dC), 30 min room temperature; native gel 1X TBE; conditions: protein: recombinant;commercial; tags: His, Flag3 (plasmid pPROHEX-HC-Flag3-NRF2);; copies: 1;1; blunt
[7] = target: T1, NRF1;MAFG; assay: competition EMSA; unlabeled vs labeled N1; legend once says NRF2 for these lanes (apparent typo); 20 mM HEPES (pH not stated), 4 mM MgCl2, 20 mM KCl, 5 mM DTT, 1 mM EDTA, 100 ug/ml BSA, 4% glycerol, poly(dI-dC), 30 min room temperature; native gel 1X TBE; conditions: protein: ivt;commercial; tags: His (plasmid pPB-N-His-NRF1, abm PV028854);; copies: 1;1; blunt

T2 sequence (P01100 whole entry, chain 1 of 2): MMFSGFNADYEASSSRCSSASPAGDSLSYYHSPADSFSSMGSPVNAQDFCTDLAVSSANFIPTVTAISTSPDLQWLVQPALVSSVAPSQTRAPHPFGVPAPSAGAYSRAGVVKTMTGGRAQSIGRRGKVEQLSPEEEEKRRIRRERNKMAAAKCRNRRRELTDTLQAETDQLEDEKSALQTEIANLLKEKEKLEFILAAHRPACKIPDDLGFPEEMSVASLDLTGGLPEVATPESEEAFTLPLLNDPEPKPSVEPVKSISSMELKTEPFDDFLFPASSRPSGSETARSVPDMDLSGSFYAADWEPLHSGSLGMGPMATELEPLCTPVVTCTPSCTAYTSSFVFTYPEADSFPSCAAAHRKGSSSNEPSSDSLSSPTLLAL
T2 sequence (P05412 whole entry, chain 2 of 2): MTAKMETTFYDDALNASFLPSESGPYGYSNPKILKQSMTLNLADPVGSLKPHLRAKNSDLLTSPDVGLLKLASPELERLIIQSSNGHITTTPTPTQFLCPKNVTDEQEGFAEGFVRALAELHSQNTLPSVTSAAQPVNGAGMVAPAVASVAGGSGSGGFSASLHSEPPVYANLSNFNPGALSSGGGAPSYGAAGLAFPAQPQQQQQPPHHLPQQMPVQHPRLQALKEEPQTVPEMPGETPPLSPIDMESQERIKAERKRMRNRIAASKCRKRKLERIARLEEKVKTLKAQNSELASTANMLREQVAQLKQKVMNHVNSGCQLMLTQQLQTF

B1: NQO1 ARE WT (NQO1WT) (dsDNA)
DNA 1: AATCCGCAGTCACAGTGACTCAGCAGAATCTGAGCCTAG
DNA 2: CTAGGCTCAGATTCTGCTGAGTCACTGTGACTGCGGATT
binding result [1]: binds
binding result [2]: binds
binding result [3]: binds

B2: MS4A6A ARE rs667897A (dsDNA)
DNA 1: CTGCGCTCCAAACCCGCTGTGTCATACCATACCGGATGT
DNA 2: ACATCCGGTATGGTATGACACAGCGGGTTTGGAGCGCAG
binding result [4]: binds
binding result [5]: binds
binding result [6]: binds

B3: MS4A6A rs667897G (dsDNA)
DNA 1: B2 DNA 1 with A24G
DNA 2: B2 DNA 2 with T16C
binding result [4]: no binding
binding result [6]: no binding

B4: NQO1 ARE mutant (NQO1mut) (dsDNA)
DNA 1: AATCCGCAGTCACAGACTCCTACGAGAATCTGAGCCTAG
DNA 2: CTAGGCTCAGATTCTCGTAGGAGTCTGTGACTGCGGATT
binding result [7]: no binding
binding result [4]: no binding
